Experimental data reported in paper PMC4358012.

Target: T1, CebR-His6 (Streptomyces scabies 87-22, UniProt C9Z452 1-352)
T1 sequence: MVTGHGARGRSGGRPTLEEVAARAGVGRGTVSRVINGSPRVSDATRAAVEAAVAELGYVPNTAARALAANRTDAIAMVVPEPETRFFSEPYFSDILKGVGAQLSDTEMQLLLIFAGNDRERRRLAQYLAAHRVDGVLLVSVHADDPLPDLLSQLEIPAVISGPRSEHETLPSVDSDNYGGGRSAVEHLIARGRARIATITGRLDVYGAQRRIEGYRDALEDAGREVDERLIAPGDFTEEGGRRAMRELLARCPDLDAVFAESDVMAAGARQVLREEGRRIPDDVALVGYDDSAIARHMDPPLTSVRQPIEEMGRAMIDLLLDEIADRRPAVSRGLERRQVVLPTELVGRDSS
Experiment: EMSA

B1: cbstxtR-A probe (dsDNA)
DNA 1: TGTCAATAAGCGGGAGCGCTCCCACAGCGCTCTC
DNA 2: GAGAGCGCTGTGGGAGCGCTCCCGCTTATTGACA
- binding result: binds

B2: cbstxtB probe (dsDNA)
DNA 1: CTCCCCCAGGGGGAGCGCTCCCACTGCGCTGTA
DNA 2: TACAGCGCAGTGGGAGCGCTCCCCCTGGGGGAG
- binding result: binds
